The target in assay [1] is T1, Human Net 1-FlagM2 (Apotech), recombinant netrin-1 (human, UniProt O95631 25-604).
T1 construct: also called recombinant netrin-1 (Apotech Corp.); not shown: FlagM2 tag
In words: ELISA, Aβ1-17 coated at 0.07 µg/ml, various netrin-1 concentrations. On the procedure:
An anti-mouse antibody coupled to HRP (Jackson ImmunoResearch, Inc) was added at a concentration of 0.8 μg/ml for 1 hour at 37° C. Colorimetric intensity was measured at a wavelength of 490 nm using a Victor station (Wallac).

For assay [2], the target named is T2, endogenous mouse APP (embryonic cortex) (mouse, UniProt P12023 18-770).
T2 construct: whole, on cells; also called endogenous APP
The assay can be described thus: co-immunoprecipitation of endogenous proteins from E16.5 mouse cortex.

Assay [3] has as its target T3, endogenous mouse netrin-1 (E16.5 embryonic cortex) (mouse, UniProt O09118 25-604).
T3 construct: also called mNet1
Described as above.

The Kd is a measure of binding affinity in units of concentration. On to DAEFRHDSGYEVHHQKL (peptide, UniProt P05067 672-688, looked up, domain: Aβ1-17) [Aβ1-17 (the 17 first amino acids of Aβ)], for which, in assay [1], the Kd turned out to be 30 nM.

B1: endogenous mouse bFGF (E16.5 embryonic cortex) (ligand, UniProt P15655 10-154, looked up)
chain: PALPEDGGAAFPPGHFKDPKRLYCKNGGFFLRIHPDGRVDGVREKSDPHVKLQLQAEERGVVSIKGVCANRYLAMKEDGRLLASKCVTEECFFFERLESNNYNTYRSRKYSSWYVALKRTGQYKLGSKTGPGQKAILFLPMSAKS
For the molecule B1, in assay [2], the binding result is given as “no binding”.

B2: endogenous mouse p75^ntr (E16.5 embryonic cortex) (receptor, UniProt Q9Z0W1 32-427, looked up)
chain: KETCSTGMYTHSGECCKACNLGEGVAQPCGANQTVCEPCLDSVTFSDVVSATEPCKPCTECLGLQSMSAPCVEADDAVCRCSYGYYQDEETGRCEACSVCGVGSGLVFSCQDKQNTVCEECPEGTYSDEANHVDPCLPCTVCEDTERQLRECTPWADAECEEIPGRWITRSTPPEGSDVTTPSTQEPEAPPERDLIASTVADTVTTVMGSSQPVVTRGTADNLIPVYCSILAAVVVGLVAYIAFKRWNSCKQNKQGANSRPVNQTPPPEGEKLHSDSGISVDSQSLHDQQTHTQTASGQALKGDGNLYSSLPLTKREEVEKLLNGDTWRHLAGELGYQPEHIDSFTHEACPVRALLASWGAQDSATLDALLAALRRIQRADIVESLCSESTATSPV
notes: whole, on cells; also called P75-NGFR
As for B2, in assay [3], the binding result is “no binding”.

B3: endogenous mouse TrkC (E16.5 embryonic cortex) (receptor)
chain: not shown
notes: whole, on cells
For the molecule B3, in assay [3], the binding result was “no binding”.

For the origin of these results see patent US8329653 (BUCK INSTITUTE FOR AGE RESEARCH, dated 2012).
